Laboratory results taken from patent US20230174652A1 (Regeneron, published 2023).

Experiments:
[1] = target: T1, human CD20 on HEK293/hCD20 cells (human, UniProt P11836 1-297); assay: flow cytometry on HEK293/hCD20 cells (negative for CD22 and CD28), geometric mean MFI of APC
T1 construct: whole, on cells; Used as a cell line negative for CD28 and CD22; also called negative cell line for CD28 and CD22
T1 sequence (looked up): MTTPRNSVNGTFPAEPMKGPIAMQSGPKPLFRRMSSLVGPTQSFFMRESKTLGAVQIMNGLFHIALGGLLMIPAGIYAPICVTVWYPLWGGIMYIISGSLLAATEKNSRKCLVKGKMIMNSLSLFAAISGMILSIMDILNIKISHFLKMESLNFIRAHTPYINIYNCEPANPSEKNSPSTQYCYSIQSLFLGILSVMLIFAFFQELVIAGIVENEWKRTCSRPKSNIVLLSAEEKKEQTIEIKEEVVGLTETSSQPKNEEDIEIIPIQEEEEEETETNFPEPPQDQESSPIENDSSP
Experimental: (§1) Briefly, human CD4+ T-cells, HEK293/hCD20, HEK293/hCD20/hCD22 and Raji/CD80 and CD86 negative cells were resuspended in staining buffer containing D-PBS+2% FBS. […] A negative control sample was included containing no antibody. Cells were washed once with cold staining buffer and incubated for 30-45 minutes with Allophycocyanin (APC) labeled anti-human secondary antibody. After incubation, cells were washed once with cold D-PBS buffer without FBS and incubated with LIVE/DEAD Fixable Green Dead Cell Stain (Invitrogen) according to manufacturer's instructions to discriminate between live and dead cells. Cells were then fixed in BD Cytofix Buffer according to manufacturer's instructions, washed, re-suspended in staining buffer, and analyzed by flow cytometry on an iQue Screener flow cytometer. For EC₅₀ determinations, geometric mean fluorescence intensity (MFI) values were analyzed using a four parameter logistic equation over a 9-point response curve using GraphPad Prism. Fold binding was calculated using the following equation:

hCD22.mmH = target: T2, hCD22.mmH (human, UniProt P20273 20-687); assay: SPR (Biacore), mAb captured by anti-human Fc, hCD22.mmH injected, 25°C
T2 construct: also called REGN5140; recombinant human CD22
Experimental: (§2) All of the binding kinetics experiments were performed at 25° C. Kinetic association (kₐ) and dissociation (kd) rate constants were determined by fitting the real-time sensorgrams to a 1:1 binding model using Scrubber 2.0c curve fitting software.

hCD28.mmH = target: T3, hCD28.mmH (human); assay: SPR (Biacore T-200), mAb captured by anti-human Fc, hCD28.mmH injected, 25°C
T3 construct: also called human CD28 with a C-terminal myc.myc hexahistidine tag
Experimental: as §2

human CD22 on cells [2] = target: T4, human CD22 on cells (human, UniProt P20273 20-847); assay: flow cytometry on Nalm6 cells (human CD22)
T4 construct: whole, on cells; also called hCD22; CD22 on Nalm6 cells
Experimental: (§3) Flow cytometric analysis was utilized to determine binding of CD22×CD28 bispecific antibodies to human CD22 expressing Nalm6 cells and human CD28 expressing Jurkat cells and to cynomolgus monkey T (CD28+) and B (CD22+) cells. […] After incubation, the cells were washed twice with cold PBS containing 1% filtered FBS and a PE-conjugated anti-human secondary antibody was added to the cells and incubated for an additional 30 minutes. An additional phenotyping antibody cocktail (anti-CD2, anti-CD20, anti-CD16, anti-CD14) was added to wells with cynomolgus monkey PBCMs. Wells containing no antibody or secondary only were used as a control.
(§4) After incubation with secondary antibody, cells were washed, re-suspended in 200 μL cold PBS containing 1% filtered FBS and analyzed by flow cytometry on a BD LSR_Fortessa. Cynomolgus monkey T cells were identified as CD2+/CD16− and B cells as CD20+. EC₅₀ values for FACS binding were calculated using 4-parameter non-linear regression analysis in Prism software.

[3] = target: T5, Monkey CD22.mmH (XP_005588899.1) (monkey (cyno)); assay: SPR (Biacore), mAb captured by anti-human Fc, monkey CD22.mmH (XP_005588899.1) injected, 25°C
T5 construct: also called REGN5280; mfCD22.mmH
T5 chain: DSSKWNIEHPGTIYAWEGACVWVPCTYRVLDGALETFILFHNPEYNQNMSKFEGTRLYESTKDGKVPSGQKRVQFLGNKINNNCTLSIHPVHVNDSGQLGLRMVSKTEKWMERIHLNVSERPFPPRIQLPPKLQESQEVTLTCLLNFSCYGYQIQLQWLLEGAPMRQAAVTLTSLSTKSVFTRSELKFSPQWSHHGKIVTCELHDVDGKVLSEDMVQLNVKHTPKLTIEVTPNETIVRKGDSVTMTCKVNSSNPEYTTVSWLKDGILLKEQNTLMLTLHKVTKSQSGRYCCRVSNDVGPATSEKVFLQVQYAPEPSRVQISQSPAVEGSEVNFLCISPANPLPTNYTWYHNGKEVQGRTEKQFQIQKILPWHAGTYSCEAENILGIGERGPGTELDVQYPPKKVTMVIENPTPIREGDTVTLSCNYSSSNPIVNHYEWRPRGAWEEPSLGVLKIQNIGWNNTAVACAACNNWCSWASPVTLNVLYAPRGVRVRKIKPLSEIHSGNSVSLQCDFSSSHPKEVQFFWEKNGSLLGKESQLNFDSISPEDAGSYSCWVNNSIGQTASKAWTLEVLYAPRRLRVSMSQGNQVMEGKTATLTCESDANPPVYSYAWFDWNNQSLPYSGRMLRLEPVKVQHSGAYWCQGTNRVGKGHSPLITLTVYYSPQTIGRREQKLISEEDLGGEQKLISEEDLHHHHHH
Experimental: as §2

[4] = target: T6, Monkey CD22.mmH (EHH59463.1) (monkey (cyno)); assay: SPR (Biacore), mAb captured by anti-human Fc, monkey CD22.mmH (EHH59463.1) injected, 25°C
T6 construct: also called REGN5281; mfCD22.mmH
T6 chain: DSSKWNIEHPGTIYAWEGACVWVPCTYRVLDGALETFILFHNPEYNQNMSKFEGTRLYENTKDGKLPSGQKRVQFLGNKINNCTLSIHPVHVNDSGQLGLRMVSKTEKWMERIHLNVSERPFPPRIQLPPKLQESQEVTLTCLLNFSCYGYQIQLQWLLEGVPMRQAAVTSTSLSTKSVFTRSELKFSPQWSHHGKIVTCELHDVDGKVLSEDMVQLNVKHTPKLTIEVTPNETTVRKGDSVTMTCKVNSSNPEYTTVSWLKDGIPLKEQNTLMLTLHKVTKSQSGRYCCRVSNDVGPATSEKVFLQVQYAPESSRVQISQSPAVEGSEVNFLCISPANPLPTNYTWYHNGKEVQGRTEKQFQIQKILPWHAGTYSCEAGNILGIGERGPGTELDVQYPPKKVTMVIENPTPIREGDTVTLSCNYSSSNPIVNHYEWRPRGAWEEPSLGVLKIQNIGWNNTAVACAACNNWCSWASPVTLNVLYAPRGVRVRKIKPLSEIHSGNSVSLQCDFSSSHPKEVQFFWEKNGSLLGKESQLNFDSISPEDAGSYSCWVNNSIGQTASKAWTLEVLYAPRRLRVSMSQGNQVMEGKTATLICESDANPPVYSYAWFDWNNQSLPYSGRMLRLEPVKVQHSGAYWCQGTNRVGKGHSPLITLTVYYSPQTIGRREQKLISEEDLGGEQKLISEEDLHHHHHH
Experimental: as §2

human CD22 on cells [5] = target: T4, human CD22 on cells; assay: flow cytometry on HEK293/hCD20/hCD22 cells, geometric mean MFI of APC
Experimental: as §1

human CD22 [6] = target: T7, human CD22 (human, UniProt P20273 20-847); assay: flow cytometry on Raji/CD80 and CD86 negative cells
T7 construct: whole, on cells; also called hCD22
Experimental: as §1

human CD22 [7] = target: T7, human CD22; assay: flow cytometry on HEK293/hCD20/hCD22 cells
Experimental: as §1

human CD28 on cells = target: T8, human CD28 on cells (human, UniProt P10747 19-220); assay: flow cytometry on Jurkat cells (human CD28)
T8 construct: whole, on cells; also called CD28 on Jurkat cells; CD28 on human CD4+ T-cells
Experimental: as §3, §4

Binder | binding result [1] | 90 nM hCD22.mmH Bind (RU) (hCD22.mmH) | Kd (hCD22.mmH) | t½ (hCD22.mmH) | 600 nM hCD28.mmH Bind (RU) (hCD28.mmH) | Kd (hCD28.mmH) | EC50 (human CD22 on cells [2]) | t1/2 [3] | Kd [4] | t1/2 [4] | binding result (human CD22 on cells [5]) | t1/2 (hCD28.mmH) | EC50 (human CD22 [6]) | EC50 (human CD22 [7]) | EC50 (human CD28 on cells)
REGN5837 (bispecific antibody, V domains shown, also called anti-CD22 x anti-CD28 bispecific antibody; CD22xCD28 mAb) VH 1: QVQLQESGPGLVKPSETLSLTCTVSGGSISSYYWSWIRQPPGKGLEWIGYIYYSGITHYNPSLKSRVTISVDTSKIQFSLKLSSVTAADTAVYYCARWGVRRDYYYYGMDVWGQGTTVTVSS VH 2: EVQLVQSGAEVKKPGESLKISCKGSGYNFATYWIAWVRQMPGKGLELMGIIYPGDSETTYNPSFQGQVTISADKSISNAYLQWSSLKASDTAMYYCARVGGYCSGTSCHNWFDPWGLGTLVTVSS VL: not shown | no binding (tested: 10^-7 M) | 100 RU | 8.75 nM | 7.8 min | 72.9 RU | 341 nM | 13 nM |  |  |  |  |  |  |  | 
H4sH33037P2 (antibody, V domains shown, Anti-CD22 bivalent parental monoclonal antibody; also called mAb33037P2; CD22 mAb) VH: EVQLVQSGAEVKKPGESLKISCKGSGYNFATYWIAWVRQMPGKGLELMGIIYPGDSETTYNPSFQGQVTISADKSISNAYLQWSSLKASDTAMYYCARVGGYCSGTSCHNWFDPWGLGTLVTVSS VL: not shown |  | 193 RU |  | 7.8 min |  |  |  | 4.3 min | 35.6 nM | 4 min |  |  |  |  | 
REGN5705 (antibody, V domains shown, also called CD28 mAb; parental CD28 antibody) VH: QVQLQESGPGLVKPSETLSLTCTVSGGSISSYYWSWIRQPPGKGLEWIGYIYYSGITHYNPSLKSRVTISVDTSKIQFSLKLSSVTAADTAVYYCARWGVRRDYYYYGMDVWGQGTTVTVSS VL: not shown | no binding (tested: 10^-7 M) |  |  |  | 88.4 RU |  |  |  |  |  | no binding (tested: 10^-7 M) | 2.4 min |  |  | 
REGN5838 (bispecific antibody, V domains shown, also called anti-CD22 x anti-CD28 bispecific antibody; CD22xCD28) VH 1: QVQLQESGPGLVKPSETLSLTCTVSGGSISSYYWSWIRQPPGKGLEWIGYIYYSGITHYNPSLKSRVTISVDTSKIQFSLKLSSVTAADTAVYYCARWGVRRDYYYYGMDVWGQGTTVTVSS VH 2: EVQLVESGGGLVQPGGSLKLSCAASGFTFSGSDMHWVRQASGKGLEWVGRIRNQPNSYATAYAASVKGRFTISRDDSKNTAHLQMNSLKTEDTAVYFCTRQKQVVYNYHHYYGMDVWGQGTTVTVSS VL: not shown |  |  |  |  |  |  |  |  |  |  |  |  | 14.9 nM | 11.4 nM | 
REGN5838 (bispecific antibody, V domains shown, also called anti-CD22 x anti-CD28 bispecific antibody; CD22xCD28 mAb) VH 1: QVQLQESGPGLVKPSETLSLTCTVSGGSISSYYWSWIRQPPGKGLEWIGYIYYSGITHYNPSLKSRVTISVDTSKIQFSLKLSSVTAADTAVYYCARWGVRRDYYYYGMDVWGQGTTVTVSS VH 2: EVQLVESGGGLVQPGGSLKLSCAASGFTFSGSDMHWVRQASGKGLEWVGRIRNQPNSYATAYAASVKGRFTISRDDSKNTAHLQMNSLKTEDTAVYFCTRQKQVVYNYHHYYGMDVWGQGTTVTVSS VL: not shown | no binding (tested: 10^-7 M) | 26.7 RU | 14.3 nM | 38.2 min | 77 RU | 404 nM | 18 nM |  |  |  |  | 2.3 min |  |  | 23 nM
H4sH33041P2 (antibody, V domains shown, Anti-CD22 bivalent parental monoclonal antibody; also called mAb33041P2; CD22 mAb) VH: EVQLVESGGGLVQPGGSLKLSCAASGFTFSGSDMHWVRQASGKGLEWVGRIRNQPNSYATAYAASVKGRFTISRDDSKNTAHLQMNSLKTEDTAVYFCTRQKQVVYNYHHYYGMDVWGQGTTVTVSS VL: not shown |  | 61.5 RU |  | 59.8 min |  |  |  | 39.8 min | 59.2 nM | 29.6 min |  |  |  |  | 
